Data published in patent publication US20230159663A1 (VIRTUOSO BINCO, published 2023).
Positions count from the first letter of the chain named. Names and notes keep the numbering of the source. One block for each binder: values may come before it.

Tests used:
[1] = molecular target: T1, human CD47 extracellular domain with C-terminal 6×His tag (human, UniProt Q08722 19-139, limits assumed); assay: ELISA on human CD47
T1 construct: extracellular domain; Made in Expi293F cells (section 5.4.1); also called recombinant CD47; huCD47

[2] = molecular target: T2, human EpCAM extracellular domain with C-terminal His tag (Novoprotein #C339) (human, UniProt P16422 24-265); assay: assay not given; ranks EpCAM affinity among Bi-1, Bi-2 and Bi-8
T2 construct: extracellular domain; Bought protein
T2 sequence (looked up): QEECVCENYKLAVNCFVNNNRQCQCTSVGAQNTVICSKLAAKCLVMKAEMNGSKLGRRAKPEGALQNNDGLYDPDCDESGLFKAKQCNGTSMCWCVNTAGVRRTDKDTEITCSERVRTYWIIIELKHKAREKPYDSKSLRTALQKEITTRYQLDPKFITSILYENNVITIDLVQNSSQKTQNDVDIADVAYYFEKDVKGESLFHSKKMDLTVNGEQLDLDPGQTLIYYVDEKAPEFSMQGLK

[3] = molecular target: T3, human EpCAM on cells (CHO-K1 cells transfected with human EpCAM; EpCAM+ tumour cell lines) (human, UniProt P16422 24-314); assay: flow cytometry on MCF-7, Caco-2 and A431 cells
T3 construct: whole, on cells; also called CHO-K1-huEpCAM cells; cell-surface EpCAM
T3 sequence (looked up): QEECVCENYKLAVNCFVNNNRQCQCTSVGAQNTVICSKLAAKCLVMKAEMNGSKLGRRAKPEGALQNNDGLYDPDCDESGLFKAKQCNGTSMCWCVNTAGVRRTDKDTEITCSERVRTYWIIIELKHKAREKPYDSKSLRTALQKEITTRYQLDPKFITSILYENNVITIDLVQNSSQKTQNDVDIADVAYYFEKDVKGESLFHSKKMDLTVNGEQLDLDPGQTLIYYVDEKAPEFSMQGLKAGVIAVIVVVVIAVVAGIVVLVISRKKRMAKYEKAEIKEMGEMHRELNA

[4] = molecular target: T4, CD47 expressed on human red blood cells (human, UniProt Q08722 19-323); assay: flow cytometry on human red blood cells
T4 construct: whole, on cells; also called RBCs; RBC

[5] = molecular target: T1, human CD47 extracellular domain with …; assay: ELISA on human CD47; EC50 given as a bin, limits from the table's legend; lower limit of bin A
[6] = molecular target: T1, human CD47 extracellular domain with …; assay: ELISA on human CD47; EC50 given as a bin, limits from the table's legend; upper limit of bin A
[7] = molecular target: T1, human CD47 extracellular domain with …; assay: ELISA on human CD47; EC50 given as a bin, limits from the table's legend; lower limit of bin B
[8] = molecular target: T1, human CD47 extracellular domain with …; assay: ELISA on human CD47; EC50 given as a bin, limits from the table's legend; upper limit of bin B
[9] = molecular target: T1, human CD47 extracellular domain with …; assay: ELISA on human CD47; EC50 given as a bin, limits from the table's legend; lower limit of bin C
[10] = molecular target: T1, human CD47 extracellular domain with …; assay: ELISA on human CD47; EC50 given as a bin, limits from the table's legend; upper limit of bin C
[11] = molecular target: T2, human EpCAM extracellular domain with …; assay: ELISA, plate coated with human EpCAM
[12] = molecular target: T1, human CD47 extracellular domain with …; assay: ELISA, plate coated with recombinant huCD47

- binding result [1]: binds
- binding result [2]: binds
B1: Bi-8 (3C-KIH EpCAM × CD47 scFv bispecific antibody) (bispecific antibody)
chain: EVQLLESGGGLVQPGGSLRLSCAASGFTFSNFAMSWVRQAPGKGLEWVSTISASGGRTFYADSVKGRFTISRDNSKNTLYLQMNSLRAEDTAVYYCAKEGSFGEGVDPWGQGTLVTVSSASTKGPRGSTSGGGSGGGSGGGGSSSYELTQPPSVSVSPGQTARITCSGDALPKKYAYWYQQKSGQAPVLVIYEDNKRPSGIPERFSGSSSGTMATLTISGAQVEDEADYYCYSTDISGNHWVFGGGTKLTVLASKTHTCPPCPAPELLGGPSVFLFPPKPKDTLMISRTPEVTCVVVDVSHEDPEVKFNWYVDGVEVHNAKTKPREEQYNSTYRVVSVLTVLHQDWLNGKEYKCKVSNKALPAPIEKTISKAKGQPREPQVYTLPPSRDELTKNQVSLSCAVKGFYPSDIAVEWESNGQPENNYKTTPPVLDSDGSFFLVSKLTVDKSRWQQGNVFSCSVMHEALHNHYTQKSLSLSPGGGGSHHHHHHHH
heavy: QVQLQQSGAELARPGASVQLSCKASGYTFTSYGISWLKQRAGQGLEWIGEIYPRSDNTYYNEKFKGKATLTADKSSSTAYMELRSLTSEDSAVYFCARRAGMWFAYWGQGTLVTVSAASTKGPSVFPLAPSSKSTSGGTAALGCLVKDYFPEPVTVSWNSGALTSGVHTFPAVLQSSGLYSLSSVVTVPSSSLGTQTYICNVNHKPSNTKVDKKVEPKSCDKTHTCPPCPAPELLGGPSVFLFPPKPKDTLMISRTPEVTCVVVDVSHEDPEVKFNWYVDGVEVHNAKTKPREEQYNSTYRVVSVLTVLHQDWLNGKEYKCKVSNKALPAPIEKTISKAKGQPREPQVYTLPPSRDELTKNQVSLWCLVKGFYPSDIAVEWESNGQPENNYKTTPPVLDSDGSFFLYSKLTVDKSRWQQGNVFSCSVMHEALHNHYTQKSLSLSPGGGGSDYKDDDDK
VL: EIVLTQSPAITAASLGQKVTITCSASSSVSDMHWYQQKSGTSPKPWIYEISKLASGVPTRFSGSGSGTSYSLTISSMEAEDAAIYYCQHWSYPLMTFGGGTKLEIK
notes: Three-chain knob-into-hole format

- EC50 [3]: < 20 nM
B2: mAb-8 (chimeric anti-EpCAM antibody) (antibody, V domains shown)
VH: QVQLQQSGAELARPGASVQLSCKASGYTFTSYGISWLKQRAGQGLEWIGEIYPRSDNTYYNEKFKGKATLTADKSSSTAYMELRSLTSEDSAVYFCARRAGMWFAYWGQGTLVTVSA
VL: B1 VL
notes: also called EpCAM Mab8

- fold higher concentration required for RBC binding, against CD47 BMK-1 [4]: > 20 fold
- EC50 [5]: ≥ 0.01 nM
- EC50 [6]: ≤ 0.15 nM
B3: VIR47 hIgG1 (antibody)
heavy: not shown
light: SYEMTQPPSVSVSPGQTARITCSGDALPKKYAYWYQQKSGQAPVLVIYEDNKRPSGIPERFSGSSSGTMATLTISGAQVEDEADYYCYSTDISGNHWVFGGGTELTVLGQPKAAPSVTLFPPSSEELQANKATLVCLISDFYPGAVTVAWKADSSPVKAGVETTTPSKQSNNKYAASSYLSLTPEQWKSHRSYSCQVTHEGSTVEKTVAPTECS
notes: also called VIR47 IgG1; IgG1 form of VIR47

- fold higher concentration required for RBC binding, against CD47 BMK-1 [4]: > 20 fold
B4: VIR47 hIgG4-SPL (antibody)
heavy: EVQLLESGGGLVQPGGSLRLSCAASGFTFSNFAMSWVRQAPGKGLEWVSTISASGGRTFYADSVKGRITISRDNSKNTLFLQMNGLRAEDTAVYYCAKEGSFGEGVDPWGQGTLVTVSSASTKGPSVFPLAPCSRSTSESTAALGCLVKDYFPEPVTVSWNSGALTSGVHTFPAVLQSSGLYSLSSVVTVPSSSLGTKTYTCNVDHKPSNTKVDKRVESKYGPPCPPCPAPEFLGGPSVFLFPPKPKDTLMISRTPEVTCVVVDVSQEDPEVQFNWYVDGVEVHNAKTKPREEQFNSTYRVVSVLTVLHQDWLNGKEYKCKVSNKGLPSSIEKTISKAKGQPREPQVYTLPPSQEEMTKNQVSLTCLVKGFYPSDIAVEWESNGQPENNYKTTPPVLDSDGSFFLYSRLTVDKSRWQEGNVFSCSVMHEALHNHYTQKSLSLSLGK
light: B3 light
notes: Anti-CD47 from OmniRat rats on a human IgG4 framework with S228P; also called VIR47 mAb; IgG4 form

- EC50 [7]: ≥ 0.15 nM
- EC50 [8]: ≤ 0.4 nM
B5: VIR47 IgG1 HC G99A (antibody, V domains shown)
VH: EVQLLESGGGLVQPGGSLRLSCAASGFTFSNFAMSWVRQAPGKGLEWVSTISASGGRTFYADSVKGRITISRDNSKNTLFLQMNGLRAEDTAVYYCAKEGSFAEGVDPWGQGTLVTVSS
VL: SYEMTQPPSVSVSPGQTARITCSGDALPKKYAYWYQQKSGQAPVLVIYEDNKRPSGIPERFSGSSSGTMATLTISGAQVEDEADYYCYSTDISGNHWVFGGGTELTVLG
notes: Alanine-scan variant of the IgG1 form of VIR47; position in Kabat-style numbering, not the linear count on the entry

- EC50 [7]: ≥ 0.15 nM
- EC50 [8]: ≤ 0.4 nM
B6: VIR47 IgG1 HC G100aA (antibody, V domains shown)
VH: B5 VH with A103G, G105A
VL: B5 VL
notes: as for B5

- EC50 [9]: ≥ 0.4 nM
- EC50 [10]: ≤ 5 nM
B7: VIR47 IgG1 HC F98A (antibody, V domains shown)
VH: B5 VH with F102A, A103G
VL: B5 VL
notes: as for B5

- EC50 [3]: < 20 nM
B8: mAb-2 (chimeric anti-EpCAM antibody) (antibody, V domains shown)
VH: EVQLVESGGGLVQPKGSLKLSCAASGFTFNTYAMHWVRQAPGKGLEWVARIRSKTYNYATFYADSVKDRFTISRDDSQSMLYLQMNNLKTEDTAMFYCVTGSSYAMDYWGQGTSVTVSS
VL: DILLTQSPAILSVSPGERVSFSCRASQSIGTSLHWYQQRTNGSPRLLIKYASESISGIPSRFSGSGSGTDFTLSINSVESEDIADYYCQQSNSWPYTFGGGTKLEIK
notes: also called EpCAM Mab2

- EC50 [3]: < 20 nM
B9: mAb-21 (chimeric anti-EpCAM antibody) (antibody, V domains shown)
VH: DVQLQESGPGLVKPSQSLSLTCTVTGYSITSDFAWNWIRQFPGNKLEWVGYITYSGTTSYNPSLKSRISITRDTSKNQFFLQLSSVTTEDTATYYCARSFHFFAYGFAYWGQGTLVTVSA
VL: not shown

- fold higher concentration required for RBC binding, against CD47 BMK-1 [4]: > 20 fold
B10: VIR47.V7 hIgG1 (antibody, V domains shown)
VH: B5 VH with F80Y, G85S, A103G
VL: B5 VL with E104K
notes: HC: F79Y, G82bS; LC: E103K (Kabat) against VIR47; already contained in the entries

- binding result [11]: binds
- binding result [12]: binds
B11: Bi-1 (3C-KIH EpCAM × CD47 scFv bispecific antibody) (bispecific antibody, human IgG1)
chain: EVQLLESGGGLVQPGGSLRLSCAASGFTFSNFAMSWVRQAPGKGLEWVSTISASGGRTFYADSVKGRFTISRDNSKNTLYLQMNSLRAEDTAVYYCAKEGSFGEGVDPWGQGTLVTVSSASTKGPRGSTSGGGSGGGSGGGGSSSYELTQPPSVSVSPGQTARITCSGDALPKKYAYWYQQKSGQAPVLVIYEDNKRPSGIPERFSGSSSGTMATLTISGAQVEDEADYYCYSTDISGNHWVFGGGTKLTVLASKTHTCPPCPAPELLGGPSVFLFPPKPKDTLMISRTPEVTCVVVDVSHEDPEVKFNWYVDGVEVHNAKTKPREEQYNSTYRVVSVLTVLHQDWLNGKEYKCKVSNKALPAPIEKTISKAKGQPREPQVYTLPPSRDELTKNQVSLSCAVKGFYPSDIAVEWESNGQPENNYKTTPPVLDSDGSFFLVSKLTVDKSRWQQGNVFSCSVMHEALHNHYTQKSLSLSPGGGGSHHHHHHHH
heavy: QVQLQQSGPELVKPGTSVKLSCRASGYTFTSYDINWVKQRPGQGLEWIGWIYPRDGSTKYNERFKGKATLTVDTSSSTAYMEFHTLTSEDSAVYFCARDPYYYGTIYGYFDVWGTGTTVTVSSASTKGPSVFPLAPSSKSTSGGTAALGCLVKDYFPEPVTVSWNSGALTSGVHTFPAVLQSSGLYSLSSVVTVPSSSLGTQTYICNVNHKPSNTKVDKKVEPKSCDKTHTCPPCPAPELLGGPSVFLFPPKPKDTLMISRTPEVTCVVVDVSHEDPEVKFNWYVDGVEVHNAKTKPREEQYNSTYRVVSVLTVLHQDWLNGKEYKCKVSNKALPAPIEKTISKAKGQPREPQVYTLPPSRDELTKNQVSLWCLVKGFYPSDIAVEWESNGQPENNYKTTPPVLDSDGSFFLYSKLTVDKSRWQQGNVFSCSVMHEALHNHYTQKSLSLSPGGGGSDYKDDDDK
VL: DIQMTQSPSSLSASLGERVSLTCRASQDIGNSLNWLQQKPDGTIKRLIYVTSRLDSGVPKRFSGSRSGSDYFFTISSLESEDFADYYCLQYASSPFTFGSGTKLEIK
notes: as for B1

- EC50 [3]: < 20 nM
- EC50 (read off the curve) [11]: ~0.1 nM
- binding result [12]: no binding (tested: 100 nM)
B12: mAb-1 (chimeric anti-EpCAM antibody) (antibody, V domains shown)
VH: QVQLQQSGPELVKPGTSVKLSCRASGYTFTSYDINWVKQRPGQGLEWIGWIYPRDGSTKYNERFKGKATLTVDTSSSTAYMEFHTLTSEDSAVYFCARDPYYYGTIYGYFDVWGTGTTVTVSS
VL: B11 VL
notes: also called EpCAM Mab1
